Values belong to the molecule of their own block, whether it stands above or below them.
Columns and labels:
[1] = molecular target: T1, TcAdoMetDC (T. cruzi AdoMetDC homodimer) (Trypanosoma cruzi, UniProt O76240); experiment: activation of AdoMet decarboxylation, […]CO2 trapping; format: biochemical; settings: 5 mM putrescine; allosteric activator; pH 8.0, 37 °C
T1 sequence (O76240 1-85): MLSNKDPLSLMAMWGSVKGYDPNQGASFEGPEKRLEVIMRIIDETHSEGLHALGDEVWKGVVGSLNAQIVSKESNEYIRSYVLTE
T1 sequence (O76240 86-370): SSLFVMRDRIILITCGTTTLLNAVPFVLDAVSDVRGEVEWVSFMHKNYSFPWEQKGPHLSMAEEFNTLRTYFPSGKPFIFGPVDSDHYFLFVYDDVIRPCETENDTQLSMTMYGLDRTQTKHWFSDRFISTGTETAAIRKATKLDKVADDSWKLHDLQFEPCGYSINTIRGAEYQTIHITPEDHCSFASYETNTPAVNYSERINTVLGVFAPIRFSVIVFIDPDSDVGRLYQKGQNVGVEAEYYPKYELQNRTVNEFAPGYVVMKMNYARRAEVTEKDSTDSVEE

[2] = molecular target: T. cruzi S-adenosylmethionine decarboxylase (AdoMetDC), His6-tagged (Trypanosoma cruzi)
[3] = molecular target: T. brucei S-adenosylmethionine decarboxylase (AdoMetDC), His6-tagged (Trypanosoma brucei)
[4] = molecular target: T. cruzi S-adenosylmethionine decarboxylase (AdoMetDC), His6-tagged (Trypanosoma cruzi); remark: listed apart in the source

Molecule: NCCCCN [putrescine]
activation of AdoMet decarboxylation, 14CO2 trapping [1]: the T. cruzi AdoMetDC enzyme was stimulated by putrescine

Molecule: T. brucei prozyme, His6-tagged (natural protein)
increase of T. cruzi AdoMetDC activity by T. brucei prozyme, no putrescine [2]: 70 fold

Molecule: T. cruzi prozyme, His6-tagged (natural protein)
stimulation of T. brucei AdoMetDC activity by T. cruzi prozyme, no putrescine [3]: 60 fold

kcat/Km of AdoMet decarboxylation, co-purified heterodimer, 5 mM putrescine [4]: 5100 M⁻¹ s⁻¹ | kcat/Km of AdoMet decarboxylation, co-purified heterodimer, no putrescine [4]: 1030 M⁻¹ s⁻¹
Molecule: T. cruzi prozyme, untagged (natural protein)
